Experimental data: article PMC7363153

Key:
[1] = target: 1N3R Tau (human) (UniProt P10636)
[2] = target: 1N4R Tau (human) (UniProt P10636)

Substance | disaggregation of 1N3R Tau fibrils with HSC70, HSPA4 and ATP: Tau shifted to the supernatant fraction (centrifugation, immunoblot) [1] | disaggregation of 1N4R Tau fibrils with HSC70, HSPA4 and ATP: Tau shifted to the supernatant fraction (centrifugation, immunoblot) [2]
DNAJB1 (from UniProt P25685 1-340) (natural protein) | 50% | 26%
DNAJB4 (from UniProt Q9UDY4 1-337) (natural protein) | 50% | 36%
